Changes are numbered by the printed parent chain.
T1: cynomolgus monkey FcγRIIb extracellular domain, His-tagged (cynomolgus monkey)
T1 construct: also called cyno FcγRIIb; cynoFcγRIIb; not shown: C-terminal His-tag
T1 chain: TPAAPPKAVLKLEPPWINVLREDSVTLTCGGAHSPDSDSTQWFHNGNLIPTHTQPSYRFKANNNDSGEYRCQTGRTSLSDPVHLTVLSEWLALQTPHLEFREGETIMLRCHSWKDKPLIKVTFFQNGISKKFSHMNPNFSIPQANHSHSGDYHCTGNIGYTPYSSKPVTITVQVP

T2: cynomolgus monkey FcγRIIa2 extracellular domain, His-tagged (cynomolgus monkey)
T2 construct: also called cyno FcγRIIa2; cynoFcgRIIa2; not shown: C-terminal His-tag
T2 chain: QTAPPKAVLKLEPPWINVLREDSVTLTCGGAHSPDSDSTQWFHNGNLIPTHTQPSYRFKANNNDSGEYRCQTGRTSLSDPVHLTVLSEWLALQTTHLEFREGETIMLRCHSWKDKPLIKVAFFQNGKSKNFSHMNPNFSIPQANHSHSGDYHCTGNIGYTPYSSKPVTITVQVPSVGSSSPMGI

T3: human FcγRIIb extracellular domain, His-tagged (human, UniProt P31994 43-217)
T3 construct: also called FcgRIIb (human); not shown: C-terminal His-tag
T3 sequence: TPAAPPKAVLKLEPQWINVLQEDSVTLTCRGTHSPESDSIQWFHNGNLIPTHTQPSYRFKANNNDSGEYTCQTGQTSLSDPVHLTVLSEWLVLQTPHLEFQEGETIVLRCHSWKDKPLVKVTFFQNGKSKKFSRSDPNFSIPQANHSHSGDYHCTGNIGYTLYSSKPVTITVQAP

T4: cynomolgus monkey FcγRIIa3 extracellular domain, His-tagged (cynomolgus monkey)
T4 construct: also called cyno FcγRIIa3; cynoFcgRIIa3; not shown: C-terminal His-tag
T4 chain: T2 chain with K127I, N130K, H133P, Q142R

T5: cynomolgus monkey FcγRIIa1 extracellular domain, His-tagged (cynomolgus monkey)
T5 construct: also called cyno FcγRIIa1; cynoFcgRIIa1; not shown: C-terminal His-tag
T5 chain: T2 chain with T95P, A121T, K127I, S128A, N130K, N135D, Q142R

T6: cynomolgus monkey FcγRIIIaS extracellular domain, His-tagged (cynomolgus monkey, UniProt Q8SPW2 21-206 at identity 1.00))
T6 construct: also called cyno FcγRIIIaS; cynoFcγRIIIaS; not shown: C-terminal His-tag
T6 chain: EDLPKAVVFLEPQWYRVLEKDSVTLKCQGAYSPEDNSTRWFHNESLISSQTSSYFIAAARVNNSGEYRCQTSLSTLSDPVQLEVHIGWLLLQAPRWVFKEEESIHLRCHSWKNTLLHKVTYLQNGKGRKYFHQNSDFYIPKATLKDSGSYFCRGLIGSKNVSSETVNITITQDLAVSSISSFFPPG

T7: human FcγRIIaR extracellular domain, His-tagged (human, UniProt P12318 34-217)
T7 construct: also called human FcγRIIa (type R); FcgRIIaR; not shown: C-terminal His-tag
T7 chain: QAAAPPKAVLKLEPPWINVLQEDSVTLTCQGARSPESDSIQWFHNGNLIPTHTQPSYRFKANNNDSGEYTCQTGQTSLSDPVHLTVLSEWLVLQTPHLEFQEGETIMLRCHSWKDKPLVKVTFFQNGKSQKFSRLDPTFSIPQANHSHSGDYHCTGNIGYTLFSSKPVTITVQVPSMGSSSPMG

T8: human FcγRIIaH extracellular domain, His-tagged (human, UniProt P12318 34-217)
T8 construct: also called human FcγRIIa (type H); FcgRIIaH; not shown: C-terminal His-tag
T8 sequence: T7 chain with R134H

B1: M103205H795-MY450/M103202L889-SK1 (antibody, human IgG1, kappa)
heavy: QVTLKESGPVLVKPTETLTLTCTVSGIDLSHDDISWVRQAPGKGLEWVGIISYAGSTYYASWAKGRLTISKDTSKNQVVLTMTNMDPVDTATYYCARGVPAYSHGGDLWGQGTLVTVSSASTKGPSVFPLAPSSKSTSGGTAALGCLVKDYFPEPVTVSWNSGALTSGVHTFPAVLQSSGLYSLSSVVTVPSSSLGTQTYICNVNHKPSNTKVDKKVEPKSCDKTHTCPPCPAMELLTGPSVFLFPPKPKDTLMISRTPEVTCVVVDVSDEDPEVKFNWYVDGVEVHNAKTKPREEQYNSTYRVVSVLTVLHQDWLNGKEYKCKVSNKALPKPIEKTISKAKGQPREPQVYTLPPSREEMTKNQVSLTCLVKGFYPSDIAVEWESNGQPENNYKTTPPVLDSDGSFFLYSKLTVDKSRWQQGNVFSCSVMHEALHNHYTQKSLSLSP
light: DIVMTQSPATLSLSPGERATLSCTSSQSVYHANWLSWFQQKPGQPPKLLIYWASTLAYGVPSRFSGSGSGTDFTLTISSLQPEDAATYYCAGGYGGGRYAFGQGTKVEIKRTVAAPSVFIFPPSDEQLKSGTASVVCLLNNFYPREAKVQWKVDNALQSGNSQESVTEQDSKDSTYSLSSTLTLSKADYEKHKVYACEVTHQGLSSPVTKSFNRGEC
notes: copies: 2 + 2
B2: M103205H795-MY458/M103202L889-SK1 (antibody, human IgG1, kappa)
heavy: B1 heavy with M234Y
light: B1 light
notes: copies: 2 + 2
B3: M103205H795-MY455/M103202L889-SK1 (antibody, human IgG1, kappa)
heavy: B1 heavy with M234T
light: B1 light
notes: copies: 2 + 2
B4: M103205H795-MY451/M103202L889-SK1 (antibody, human IgG1, kappa)
heavy: B1 heavy with M234N
light: B1 light
notes: copies: 2 + 2
B5: M103205H795-MY452/M103202L889-SK1 (antibody, human IgG1, kappa)
heavy: B1 heavy with M234Q
light: B1 light
notes: copies: 2 + 2
B6: M103205H795-MY453/M103202L889-SK1 (antibody, human IgG1, kappa)
heavy: B1 heavy with M234R
light: B1 light
notes: copies: 2 + 2
B7: M103205H795-MY454/M103202L889-SK1 (antibody, human IgG1, kappa)
heavy: B1 heavy with M234S
light: B1 light
notes: copies: 2 + 2
B8: M103205H795-MY457/M103202L889-SK1 (antibody, human IgG1, kappa)
heavy: B1 heavy with M234W
light: B1 light
notes: copies: 2 + 2
B9: M103205H795-MY456/M103202L889-SK1 (antibody, human IgG1, kappa)
heavy: B1 heavy with M234V
light: B1 light
notes: copies: 2 + 2

Target: T1, cynomolgus monkey FcγRIIb extracellular …
Assay: SPR (BIACORE), captured antibody, FcgR as analyte
Protocol: (§1) The kinetic analysis of interactions between these antibodies and FcγR was carried out using BIACORE® T200 or BIACORE® 4000 (GE Healthcare). HBS-EP+ (GE Healthcare) was used as the running buffer, and the measurement temperature was set to 25° C. A chip produced by immobilizing Protein A. Protein A/G or mouse anti-human IgG kappa light chain (BD Biosciences) onto a Series S Sensor Chip CM4 or CM5 (GE Healthcare) by the amine-coupling method was used. […] After the measurement, the antibody captured on the chip was washed off by allowing reaction with 10 mM glycine-HCl, pH1.5 and 25 mM NaOH so that the chip was regenerated and used repeatedly. The sensorgrams obtained as measurement results were analyzed by the 1:1 Langmuir binding model using the BIACORE® Evaluation Software to calculate the binding rate constant ka (L/mol/s) and dissociation rate constant kd (l/s), and the dissociation constant KD (mol/L) was calculated from these values. […] Regarding such interactions, KD values were calculated using the following 1:1 binding model described in BIACORE® T100 Software Handbook BR1006-48 Edition AE.

Row | Binder | Kd
1 | B1 | 280 nM
2 | B2 | 430 nM
3 | B3 | 920 nM
4 | B4 | 1000 nM
5 | B5 | 920 nM
6 | B6 | 2100 nM
7 | B7 | 1000 nM
8 | B8 | 200 nM
9 | B9 | 520 nM

Target: T2, cynomolgus monkey FcγRIIa2 …
Assay: SPR (BIACORE), captured antibody, FcgR as analyte
Protocol: as §1

Row | Binder | Kd
10 | B1 | 1100 nM
11 | B2 | 1600 nM
12 | B3 | 1900 nM
13 | B4 | 4200 nM
14 | B5 | 3100 nM
15 | B6 | 9900 nM
16 | B7 | 3100 nM
17 | B8 | 840 nM
18 | B9 | 1700 nM

Each binder was assayed against T3, human FcγRIIb extracellular domain, … (assay: SPR (BIACORE), captured antibody, FcgR as analyte).
Protocol: as §1

Row | Binder | Kd
19 | B1 | 470 nM
20 | B2 | 990 nM
21 | B3 | 2200 nM
22 | B4 | 3000 nM
23 | B5 | 2900 nM
24 | B6 | 6500 nM
25 | B7 | 3100 nM
26 | B8 | 330 nM
27 | B9 | 1100 nM

Target: T4, cynomolgus monkey FcγRIIa3 …
Assay: SPR (BIACORE), captured antibody, FcgR as analyte
Protocol: as §1

Row | Binder | Kd
28 | B1 | 2200 nM
29 | B2 | 3000 nM
30 | B3 | 5400 nM
31 | B4 | 6700 nM
32 | B5 | 6500 nM
33 | B6 | 21000 nM
34 | B7 | 7600 nM
35 | B8 | 1200 nM
36 | B9 | 3400 nM

Target: T5, cynomolgus monkey FcγRIIa1 …
Assay: SPR (BIACORE), captured antibody, FcgR as analyte
Protocol: as §1

Row | Binder | Kd
37 | B1 | 1300 nM
38 | B2 | 1800 nM
39 | B3 | 3100 nM
40 | B4 | 3600 nM
41 | B5 | 3400 nM
42 | B6 | 8200 nM
43 | B7 | 3800 nM
44 | B8 | 830 nM
45 | B9 | 1900 nM

Target: T6, cynomolgus monkey FcγRIIIaS …
Assay: SPR (BIACORE), captured antibody, FcgR as analyte
Protocol: as §1

Row | Binder | Kd
46 | B1 | 1800 nM
47 | B2 | 190 nM
48 | B3 | 2800 nM
49 | B4 | 2700 nM
50 | B5 | 2800 nM
51 | B6 | 6500 nM
52 | B7 | 2500 nM
53 | B8 | 1100 nM
54 | B9 | 2000 nM

These binders were tested against T9, human FcγRIIIaV extracellular domain, His-tagged (human, UniProt P08637 17-208) (assay: SPR (BIACORE), captured antibody, FcgR as analyte).
T9 construct: also called FcgRIIIaV; not shown: C-terminal His-tag
T9 sequence (P08637 17-208 F176V): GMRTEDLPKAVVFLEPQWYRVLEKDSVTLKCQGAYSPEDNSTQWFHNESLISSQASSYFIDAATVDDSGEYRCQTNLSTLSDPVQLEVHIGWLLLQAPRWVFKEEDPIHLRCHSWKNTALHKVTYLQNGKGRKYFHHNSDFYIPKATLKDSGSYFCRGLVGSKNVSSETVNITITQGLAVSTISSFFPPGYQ
Protocol: as §1

Row | Binder | Kd
55 | B1 | 4000 nM
56 | B2 | 5300 nM
57 | B3 | 6800 nM
58 | B4 | 7100 nM
59 | B5 | 6100 nM
60 | B6 | 14000 nM
61 | B7 | 5900 nM
62 | B8 | 3500 nM
63 | B9 | 5300 nM

Target: T7, human FcγRIIaR extracellular domain, …
Assay: SPR (BIACORE), captured antibody, FcgR as analyte
Protocol: as §1

Row | Binder | Kd
64 | B1 | 120 nM
65 | B2 | 170 nM
66 | B3 | 460 nM
67 | B4 | 840 nM
68 | B5 | 620 nM
69 | B6 | 1600 nM
70 | B7 | 760 nM
71 | B8 | 73 nM
72 | B9 | 290 nM

What follows are binders tested against T8, human FcγRIIaH extracellular domain, … (assay: SPR (BIACORE), captured antibody, FcgR as analyte).
Protocol: as §1

Row | Binder | Kd
73 | B1 | 130 nM
74 | B2 | 160 nM
75 | B3 | 310 nM
76 | B4 | 410 nM
77 | B5 | 360 nM
78 | B6 | 750 nM
79 | B7 | 410 nM
80 | B8 | 120 nM
81 | B9 | 170 nM

Source: patent US20200317768A1 (published 2020)
